How the values were obtained:
APP [1] = molecular target: T1, APP (Homo sapiens, UniProt P05067); test: APP expression in HEK293 cells with P2 peptide (Western blot); assay type: cell-based; set-up: expressed in transfected cells; host or cells: HEK293
Target sequence in this assay (P05067 18-695 isoform P05067-4 limits assumed): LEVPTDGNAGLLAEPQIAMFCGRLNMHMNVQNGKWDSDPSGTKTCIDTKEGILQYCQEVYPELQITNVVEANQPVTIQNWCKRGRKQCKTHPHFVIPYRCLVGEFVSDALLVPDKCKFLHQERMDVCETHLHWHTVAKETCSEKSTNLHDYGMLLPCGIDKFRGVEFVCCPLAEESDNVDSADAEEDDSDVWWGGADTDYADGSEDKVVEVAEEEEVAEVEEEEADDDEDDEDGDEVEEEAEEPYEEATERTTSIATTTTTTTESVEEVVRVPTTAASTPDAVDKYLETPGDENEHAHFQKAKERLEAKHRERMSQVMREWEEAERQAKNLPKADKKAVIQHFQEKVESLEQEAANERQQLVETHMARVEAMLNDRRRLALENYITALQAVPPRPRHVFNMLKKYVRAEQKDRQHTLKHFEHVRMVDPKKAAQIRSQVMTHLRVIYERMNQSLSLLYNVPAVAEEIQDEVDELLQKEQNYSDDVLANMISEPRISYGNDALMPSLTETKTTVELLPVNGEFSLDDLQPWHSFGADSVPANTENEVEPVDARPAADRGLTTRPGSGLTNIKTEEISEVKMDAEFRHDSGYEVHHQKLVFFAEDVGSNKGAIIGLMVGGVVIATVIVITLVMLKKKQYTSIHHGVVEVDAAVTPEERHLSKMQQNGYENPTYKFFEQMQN

[2] = Water solubility of the peptide; assay type: physicochemical
APP [3] = molecular target: T1, APP; test: APP protein stability assay with cycloheximide (CHX) in HEK293 cells; assay type: cell-based; set-up: expressed in transfected cells; host or cells: HEK293; conditions: HEK293 co-transfected with APP plasmid plus P2 or BSA; CHX for one hour
Target sequence in this assay (P05067 18-695 isoform P05067-4 limits assumed): as above

[4] = molecular target: T2, Epstein-Barr virus latent membrane protein 1 (LMP1) (Epstein-Barr virus, UniProt P03230); test: LMP1 expression in HEK293 cells co-transfected with P2 peptide (specificity control); assay type: cell-based; conditions: HEK293 co-transfected with LMP1 expression plasmid and P2 peptide with PULSin
T2 construct: expressed in transfected cells; host or cells: HEK293
Description: FIGS. 6A-6B: FIG. 6A. HEK293 cells were transfected with EBV LMP1 expression plasmid or vector control (pcDNA3). One day later, the cells were infected with or without ZIKV overnight as in FIG. 2a. Western blots were used for detection of LMP1 and tubulin simultaneously. The images in the same box indicate they were derived from the same gels. The identity of the proteins is as shown. FIG. 6B. HEK293 cells were co-transfected with different amounts of LMP1 expression plasmid and P2 peptide, or BSA protein ([…]) with PULSin reagents. One day later, the expression of APP and tubulin were examined simultaneously by Western Blot analyses. The identity of the proteins is as shown.
We suspected that the loop in the specific structure of ZIKV E protein was responsible for the potential interaction with APP (FIGS. 1A and 1B). A peptide (P2) derived from the potential binding site, the β-hairpin region, was synthesized with sequence optimization (FIG. 1C). Located in the core region of the ZIKV E protein and being hydrophobic, the eight amino acid stretch, EYRIMLSV, in the β-hairpin region of E protein was not included in the P2 sequence. Furthermore, the P2 peptide could potentially form a similar structure as in the native protein by including extra amino acids in the C-terminus (FIGS. 1B and 1C). […]

APP [5] = molecular target: T1, APP; test: P2 effect on APP processing and amyloid formation (Western blot, immunofluorescence); assay type: cell-based
Target sequence in this assay (P05067 18-770, species assumed): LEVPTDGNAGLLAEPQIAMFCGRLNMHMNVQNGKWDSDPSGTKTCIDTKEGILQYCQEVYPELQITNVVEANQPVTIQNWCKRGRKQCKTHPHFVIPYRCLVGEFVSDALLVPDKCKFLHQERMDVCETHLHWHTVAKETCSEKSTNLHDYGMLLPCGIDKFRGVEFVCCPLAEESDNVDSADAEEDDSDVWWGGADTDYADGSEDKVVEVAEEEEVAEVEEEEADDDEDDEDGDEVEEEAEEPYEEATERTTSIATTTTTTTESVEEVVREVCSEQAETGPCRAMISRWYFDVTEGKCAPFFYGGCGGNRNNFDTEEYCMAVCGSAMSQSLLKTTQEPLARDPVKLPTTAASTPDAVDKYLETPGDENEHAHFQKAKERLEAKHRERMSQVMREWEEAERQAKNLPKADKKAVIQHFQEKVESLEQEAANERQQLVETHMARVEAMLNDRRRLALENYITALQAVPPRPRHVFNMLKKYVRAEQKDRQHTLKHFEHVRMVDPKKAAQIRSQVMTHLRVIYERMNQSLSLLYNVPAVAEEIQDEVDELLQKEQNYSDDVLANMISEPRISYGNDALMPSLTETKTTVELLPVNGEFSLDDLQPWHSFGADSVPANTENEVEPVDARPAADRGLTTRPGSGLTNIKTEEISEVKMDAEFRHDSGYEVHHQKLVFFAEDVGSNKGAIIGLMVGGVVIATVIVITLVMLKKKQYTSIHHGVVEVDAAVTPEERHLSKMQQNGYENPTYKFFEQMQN

T2 sequence (P03230 whole entry): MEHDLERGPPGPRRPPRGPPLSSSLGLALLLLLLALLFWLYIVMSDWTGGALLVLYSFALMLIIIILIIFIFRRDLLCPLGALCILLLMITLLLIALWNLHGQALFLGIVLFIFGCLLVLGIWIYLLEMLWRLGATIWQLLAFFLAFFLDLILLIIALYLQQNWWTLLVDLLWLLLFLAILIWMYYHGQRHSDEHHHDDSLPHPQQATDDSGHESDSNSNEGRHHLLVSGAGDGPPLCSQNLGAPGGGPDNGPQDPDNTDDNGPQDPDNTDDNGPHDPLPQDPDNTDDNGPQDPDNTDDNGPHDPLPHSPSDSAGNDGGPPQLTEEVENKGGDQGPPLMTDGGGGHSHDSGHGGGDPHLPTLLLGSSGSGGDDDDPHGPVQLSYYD

HGSQHSGMIVNDTGHETDENRAKVEITPNSPRAEATLGGFGSLGL (listed as Zika virus) [P2, peptide derived from the β-hairpin region of ZIKV E protein, without EYRIMLSV stretch]
APP expression (APP [1]; HEK293 co-transfected with APP695 plasmid (0.5 μg) and P2 peptide (1 μg) with PULSin, compared with BSA control, one day later): could increase the expression of APP
APP expression (APP [1]; treating cells directly with peptide (data not shown)): could not enhance APP expression
water solubility [2]: water-soluble
mechanism of APP enhancement (APP protein stability) (APP [3]): a similar mechanism to ZIKV was established
LMP1 expression [4]: could not be enhanced
APP metabolic processing (APP [5]; Example 4, FIG. 13): block APP metabolic processing
interaction with APP (APP [5]; Example 4, FIG. 13): interacts with APP
amyloid formation (APP [5]; Western blot (FIG. 13A) and immunofluorescence (FIG. 13B)): reduces amyloid formation

Reference: patent US12364734B2, “Methods of treating Alzheimers disease” (NUtech Ventures, priority 2020, dated 2025)
